In patent publication US12534534 (F STAR BETA, dated 2026):
Changes are numbered by the printed parent chain. Each block holds one binder with its values, some of them ahead of it.

Tests used:
[1] = biological target: human CD137 on primary human CD8+ T cells (human, UniProt Q07011 24-255); test: cell-based or functional assay
streptavidin = biological target: T1, streptavidin (UniProt P22629 37-163, limits assumed); test: ELISA on streptavidin plates, mAb 0.1 to 300 nM
T1 construct: negative control in the ELISA; also called Streptavidin plates (Thermo Scientific, 15500)
T1 sequence (P22629 37-163 limits assumed): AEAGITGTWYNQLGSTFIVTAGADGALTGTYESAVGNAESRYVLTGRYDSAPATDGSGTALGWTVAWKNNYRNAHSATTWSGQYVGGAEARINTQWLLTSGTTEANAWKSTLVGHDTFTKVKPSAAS
Method: (§1) Blocking solution was discarded and a dilution series of anti-CD137 mAb concentrations (0.1 to 300 nM, 3-fold dilutions) was added and incubated for 1 hour at room temperature whilst shaking at 450 rpm. Plates were washed 3× with 300 µl PBS/Tween 0.05%. Goat anti-human IgG (Fc fragment) antibody conjugated to Horseradish Peroxidase (Sigma, A0170) was diluted 1:10000 in PBS and 90 µl was added to the wells. After incubation for 1 hour at 4° C. whilst shaking at 450 rpm, plates were washed 3× with 300 µl PBS/Tween 0.05%, 100 µl TMB substrate (eBioscience, 00-4201-56) was added to each well. The reaction was stopped between 2-10 minutes after addition of TMB by the addition of 50 µl 1M sulphuric acid solution. Optical density (OD) was read at 450-630 nm in a 96-well plate reader within 30 minutes of sulphuric acid addition and analysed using GraphPad Prism software (GraphPad Software, Inc.).

human OX40-mFc = biological target: T2, human OX40-mFc (human, UniProt P43489 29-214); test: ELISA on streptavidin plates, mAb 0.1 to 300 nM
T2 construct: produced in-house; negative control in the ELISA; also called human OX40-mFc-Avi; not shown: mFc part
T2 sequence: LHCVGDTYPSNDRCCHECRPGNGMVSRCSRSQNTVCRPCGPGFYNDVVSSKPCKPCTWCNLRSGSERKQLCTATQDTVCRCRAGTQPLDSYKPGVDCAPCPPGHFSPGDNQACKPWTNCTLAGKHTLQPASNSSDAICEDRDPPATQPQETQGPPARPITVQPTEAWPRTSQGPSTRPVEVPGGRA
Method: as §1

mFc-Avi = biological target: T3, mFc-Avi (mouse, UniProt P01863 99-330 = IgG part); test: ELISA on streptavidin plates, mAb 0.1 to 300 nM
T3 construct: mouse Fc domain with Avi tag; negative control in the ELISA
T3 chain: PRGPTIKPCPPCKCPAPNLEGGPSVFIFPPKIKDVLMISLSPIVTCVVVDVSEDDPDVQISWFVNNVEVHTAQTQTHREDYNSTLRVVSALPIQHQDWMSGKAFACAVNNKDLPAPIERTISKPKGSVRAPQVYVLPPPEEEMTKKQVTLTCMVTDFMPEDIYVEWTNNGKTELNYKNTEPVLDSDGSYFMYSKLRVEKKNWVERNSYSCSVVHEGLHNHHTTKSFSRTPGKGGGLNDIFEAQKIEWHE
Method: as §1

[2] = biological target: T4, human CD137 on DO11.10-hCD137 cells (human, UniProt Q07011 24-255); test: flow cytometry on DO11.10-hCD137 cells, GMFI vs concentration
T4 construct: full-length human CD137 over-expressed on DO11.10 cells by lentiviral transduction; also called cell surface-expressed human CD137
Method: (§2) Non-specific binding was also assessed by testing binding to DO11.10 cells and HEK293 cells lacking CD137 expression.
(§3) Briefly, DO11.10, HEK293, DO11.10-hCD137 or DO11.10-cCD137 suspensions were prepared in PBS containing 2% BSA (Sigma, A7906) and seeded at 4×10^6 cell/ml with 50 µl/well in V-bottomed 96-well plates (Costar, 3897). mAb dilutions (1·10^-6-100 nM, 10-fold dilutions) were prepared at 2× the final concentration in triplicate in 1×DPBS (Gibco, 14190-094). […] The cells were washed once with PBS and resuspended in 100 µl of PBS containing DAPI (Biotium, 40043) at 1 µg/ml. The cells were analysed using a Canto II flow cytometer (BD Bioscience). Dead cells were excluded and the fluorescence in the FITC channel (488 nm/530/30) was measured. The geometric mean fluorescence intensity (GMFI) values were plotted vs the log concentration of antibody and the resulting curves were fitted using the log (agonist) vs response equation in GraphPad Prism.
Target sequence in this assay (Q07011 24-255): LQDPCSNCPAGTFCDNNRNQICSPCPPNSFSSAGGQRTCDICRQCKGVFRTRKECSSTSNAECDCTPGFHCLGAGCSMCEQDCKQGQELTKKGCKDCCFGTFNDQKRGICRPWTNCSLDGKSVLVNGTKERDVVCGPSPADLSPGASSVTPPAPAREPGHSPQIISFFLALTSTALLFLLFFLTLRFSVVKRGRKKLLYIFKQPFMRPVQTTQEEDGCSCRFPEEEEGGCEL

GITR-hFc-Avi = biological target: T5, GITR-hFc-Avi (human, UniProt Q9Y5U5 26-161); test: SPR, antigen immobilised on CM5 chip
T5 construct: in-house produced; not shown: hFc and Avi part
T5 sequence: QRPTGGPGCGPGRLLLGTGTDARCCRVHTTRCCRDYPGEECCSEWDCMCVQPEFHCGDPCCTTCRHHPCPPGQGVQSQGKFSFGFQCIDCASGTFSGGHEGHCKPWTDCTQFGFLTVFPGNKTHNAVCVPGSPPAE
Method: (§4) Flow cell 1 was run as a blank immobilisation. The five FS20-22-49AA/FS30 mAb² were diluted to 1 μM and 1 nM in 1×HBS-EP buffer (GE Healthcare, product code BR100188), allowed to flow over the chip for 3 min and then allowed to dissociate for 4 minutes. A 30-second injection of 10 mM glycine pH 1.5 was used for regeneration. […] Binding levels were determined at the end of the association phase and compared.
(§5) Specificity was tested against the same five human TNFRSF members closely-related to CD137 (TNFRSF1A, TNFRSF1B, GITR, NGFR and CD40) plus an additional closely-related TNFRSF member, human DR6 (DR6-Fc; R&D Systems, 144-DR-100), using SPR as described in Example 3.1.

TNFRSF1B-Fc = biological target: T6, TNFRSF1B-Fc (human, UniProt P20333 23-257); test: SPR, antigen immobilised on CM5 chip
T6 construct: bought; also called TNFRSF1B (R&D Systems, 726-R2-050); not shown: Fc part of the bought fusion
T6 sequence (looked up): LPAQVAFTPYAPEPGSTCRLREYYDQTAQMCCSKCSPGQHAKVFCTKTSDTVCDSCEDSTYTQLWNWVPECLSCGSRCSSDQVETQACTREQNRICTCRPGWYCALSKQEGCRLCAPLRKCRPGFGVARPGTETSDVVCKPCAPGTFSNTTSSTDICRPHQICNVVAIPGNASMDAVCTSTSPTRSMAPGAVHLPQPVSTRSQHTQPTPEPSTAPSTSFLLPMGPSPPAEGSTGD
Method: as §4, §5

TNFRSF1A-Fc = biological target: T7, TNFRSF1A-Fc (human, UniProt P19438 30-211, limits assumed); test: SPR, antigen immobilised on CM5 chip
T7 construct: bought; also called TNFRSF1A (R&D Systems, 372-RI-050/CF); not shown: Fc part of the bought fusion
T7 sequence (looked up): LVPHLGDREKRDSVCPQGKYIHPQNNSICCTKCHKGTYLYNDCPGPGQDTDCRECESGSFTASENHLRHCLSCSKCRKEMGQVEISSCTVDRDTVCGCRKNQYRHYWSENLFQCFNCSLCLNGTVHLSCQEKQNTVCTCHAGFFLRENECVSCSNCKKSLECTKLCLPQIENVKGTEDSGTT
Method: as §4, §5

CD40-mFc = biological target: T8, CD40-mFc (human, UniProt P25942 21-193); test: SPR, antigen immobilised on CM5 chip
T8 construct: in-house produced; not shown: mFc part
T8 sequence (P25942 21-193): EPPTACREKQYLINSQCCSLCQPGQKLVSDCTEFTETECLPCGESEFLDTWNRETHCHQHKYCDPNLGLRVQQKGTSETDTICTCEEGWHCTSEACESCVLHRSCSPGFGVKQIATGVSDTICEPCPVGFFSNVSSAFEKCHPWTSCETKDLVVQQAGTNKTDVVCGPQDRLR
Method: as §4, §5

NGFR-Fc = biological target: T9, NGFR-Fc (human, UniProt P08138 29-250); test: SPR, antigen immobilised on CM5 chip
T9 construct: bought; also called NGFR (R&D Systems, 367-NR-050/CF); not shown: Fc part of the bought fusion
T9 sequence (looked up): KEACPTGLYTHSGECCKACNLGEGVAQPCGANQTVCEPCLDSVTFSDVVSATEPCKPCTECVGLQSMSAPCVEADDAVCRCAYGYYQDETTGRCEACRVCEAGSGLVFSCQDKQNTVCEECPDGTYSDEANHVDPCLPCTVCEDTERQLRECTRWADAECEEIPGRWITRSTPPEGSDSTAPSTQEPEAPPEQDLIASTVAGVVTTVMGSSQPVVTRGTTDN
Method: as §4, §5

[3] = biological target: T10, cyno CD137 on DO11.10-cCD137 cells (cynomolgus, UniProt Q07011 24-255 (human entry)); test: flow cytometry on DO11.10-cCD137 cells, GMFI vs concentration
T10 construct: full-length cyno CD137 over-expressed on DO11.10 cells; also called cell surface-expressed cyno CD137
T10 chain: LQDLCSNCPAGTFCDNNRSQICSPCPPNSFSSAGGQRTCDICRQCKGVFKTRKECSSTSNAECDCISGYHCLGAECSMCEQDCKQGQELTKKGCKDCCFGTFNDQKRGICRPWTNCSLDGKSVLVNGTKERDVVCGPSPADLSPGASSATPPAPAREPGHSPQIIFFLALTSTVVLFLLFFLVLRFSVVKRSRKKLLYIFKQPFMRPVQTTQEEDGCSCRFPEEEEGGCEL
Method: as §2, §3

[4] = biological target: T4, human CD137 on DO11.10-hCD137 cells; test: cell binding at 10 nM to DO11.10-hCD137 cells, against the parent FS20-22-49AA/FS30-16

Chain of human CD137 on primary human CD8+ T cells (Q07011 24-255): as the sequence (Q07011 24-255) above

B3: G1AA/FS30-5 (antibody, human IgG1, kappa, L234A L235A, V domains shown)
VH: EVQLLESGGGLVQPGGSLRLNCAASGFTFSSYAMSWVRQAPGKGLEWVSAISGSGGSTYYADSVKGRFTISRDNSKNTLYLQMNSLRAEDTAVYYCARSYDKYWGSSMYSGMDYWGQGTLVTVSS
VL: EIVLTQSPGTLSLSPGERATLSCRASQSVSSSYLAWYQQKPGQAPRLLIYGASSRATGIPDRFSGSGSGTDFTLTISRLEPEDFAVYYCQQYYSYYPVTFGQGTKVEIKR
notes: human IgG1 with LALA mutation in CH2; also called FS30-5 mAb
Activity of non-crosslinked mAbs at 100 nM (hIL-2 pg/ml) [1]: 509 pg/mL
EC50 (nM), hIL-2 release, primary human CD8+ T cell activation assay, crosslinked mAb [1]: 3.2 nM
Emax (hIL-2 pg/ml), crosslinked mAb [1]: 10900 pg/mL
binding result (streptavidin): no binding (tested: 300 nM)
binding result (human OX40-mFc): no binding (tested: 300 nM)
binding result (mFc-Avi): no binding (tested: 300 nM)
EC50 [2]: 0.24 nM
EC50 [3]: 0.45 nM

B5: FS20-22-49AA/FS30-16 variant, Methionine (100A) to F (bispecific antibody, V domains shown)
VH: EVQLLESGGGLVQPGGSLRLSCAASGFTFSNYAMHWVRQAPGKGLEWVSTIDPTDGATNYADSVKGRFTISRDNSKNTLYLQMNSLRAEDTAVYYCARSKYYTYFQYVALDYWGQGTLVTVSS
VL: B3 VL with Y92G, Y93S, S94R, Y95F, Y96F, V98I
notes: Single-site variant of the parent mAb^2 FS20-22-49AA/FS30-16
fold change of cell binding at 10 nM against the parent clone [4]: < 1.6 fold

Continued by falling EC50 [2], values first:

Activity of non-crosslinked mAbs at 100 nM (hIL-2 pg/ml) [1]: 497 pg/mL
EC50 (nM), hIL-2 release, primary human CD8+ T cell activation assay, crosslinked mAb [1]: 5.4 nM
Emax (hIL-2 pg/ml), crosslinked mAb [1]: 8560 pg/mL
binding result (streptavidin): no binding (tested: 300 nM)
binding result (human OX40-mFc): no binding (tested: 300 nM)
binding result (mFc-Avi): no binding (tested: 300 nM)
EC50 [2]: 0.32 nM
EC50 [3]: 0.57 nM
B2: G1AA/FS30-10 (antibody, human IgG1, kappa, L234A L235A, V domains shown)
VH: EVQLLESGGGLVQPGGSLRLSCAASGFTFSSYDMSWVRQAPGKGLEWVSDIDPTGSKTDYADSVKGRFTISRDNSKNTLYLQMNSLRAEDTAVYYCARDLMVYGFDYWGQGTLVTVSS
VL: EIVLTQSPGTLSLSPGERATLSCRASQSVSSSYLAWYQQKPGQAPRLLIYGASSRATGIPDRFSGSGSGTDFTLTISRLEPEDFAVYYCQQSYSYPVTFGQGTKVEIKR
notes: human IgG1 with LALA mutation in CH2; also called FS30-10 mAb

Activity of non-crosslinked mAbs at 100 nM (hIL-2 pg/ml) [1]: 402 pg/mL
EC50 (nM), hIL-2 release, primary human CD8+ T cell activation assay, crosslinked mAb [1]: 1.4 nM
Emax (hIL-2 pg/ml), crosslinked mAb [1]: 4840 pg/mL
binding result (streptavidin): no binding (tested: 300 nM)
binding result (human OX40-mFc): no binding (tested: 300 nM)
binding result (mFc-Avi): no binding (tested: 300 nM)
EC50 [2]: 0.21 nM
EC50 [3]: 0.36 nM
B4: G1AA/FS30-16 (antibody, human IgG1, kappa, L234A L235A, V domains shown)
VH: B5 VH with F105M
VL: B3 VL with Y92G, Y93S, S94R, Y95F, Y96F, V98I
notes: human IgG1 with LALA mutation in CH2; also called FS30-16 mAb

Activity of non-crosslinked mAbs at 100 nM (hIL-2 pg/ml) [1]: 449 pg/mL
EC50 (nM), hIL-2 release, primary human CD8+ T cell activation assay, crosslinked mAb [1]: 8.5 nM
Emax (hIL-2 pg/ml), crosslinked mAb [1]: 11100 pg/mL
binding result (streptavidin): no binding (tested: 300 nM)
binding result (human OX40-mFc): no binding (tested: 300 nM)
binding result (mFc-Avi): no binding (tested: 300 nM)
EC50 [2]: 0.15 nM
binding result (GITR-hFc-Avi): binds
binding result (TNFRSF1B-Fc): binds
binding result (TNFRSF1A-Fc): binds
binding result (CD40-mFc): binds
binding result (NGFR-Fc): binds
EC50 [3]: 0.31 nM
B1: G1AA/FS30-15 (antibody, human IgG1, kappa, L234A L235A, V domains shown)
VH: EVQLLESGGGLVQPGGSLRLSCAASGFTFSGSGMSWVRQAPGKGLEWVSIIYSTNGDTDYADSVKGRFTISRDNSKNTLYLQMNSLRAEDTAVYYCARDFYDIANYYAFDYWGQGTLVTVSS
VL: B2 VL with S92A, S94Y, Y95D, V97I
notes: human IgG1 with LALA mutation in CH2; also called FS30-15 mAb
